From US11214624

Molecular target: microtubule (in vitro reconstituted, taxol-stabilised)
Experiment: cell-based or functional assay

% of gliding microtubules (n = 50), ATP: 89.2%
Maximum gliding speed, ATP: 0.27 µm/min
Mean gliding speed, ATP: 0.17 µm/min
Substance: kinesin (positive control motor protein in the gliding assay)
